Read-outs that look alike come from different tables or passages of the source.
B1: soluble human recombinant PHEX (enzyme)
chain: SLQAKQEYCLKPECIEAAAAILSKVNLSVDPCDNFFRFACDGWISNNPIPEDMPSYGVYPWLRHNVDLKLKELLEKSISRRRDTEAIQKAKILYSSCMNEKAIEKADAKPLLHILRHSPFRWPVLESNIGPEGVWSERKFSLLQTLATFRGQYSNSVFIRLYVSPDDKASNEHILKLDQATLSLAVREDYLDNSTEAKSYRDALYKFMVDTAVLLGANSSRAEHDMKSVLRLEIKIAEIMIPHENRTSEAMYNKMNISELSAMIPQFDWLGYIKKVIDTRLYPHLKDISPSENVVVRVPQYFKDLFRILGSERKKTIANYLVWRMVYSRIPNLSRRFQYRWLEFSRVIQGTTTLLPQWDKCVNFIESALPYVVGKMFVDVYFQEDKKEMMEELVEGVRWAFIDMLEKENEWMDAGTKRKAKEKARAVLAKVGYPEFIMNDTHVNEDLKAIKFSEADYFGNVLQTRKYLAQSDFFWLRKAVPKTEWFTNPTTVNAFYSASTNQIRFPAGELQKPFFWGTEYPRSLSYGAIGVIVGHEFTHGFDNNGRKYDKNGNLDPWWSTESEEKFKEKTKCMINQYSNYYWKKAGLNVKGKRTLGENIADNGGLREAFRAYRKWINDRRQGLEEPLLPGITFTNNQLFFLSYAHVRCNSYRPEAAREQVQIGAHSPPQFRVNGAISNFEEFQKAFNCPPNSTMNRGMDSCRLW
B2: PHEX (enzyme)
chain: SLQAKQEYCLKPECIEAAAAILSKVNLSVDPCDNFFRFACDGWISNNPIPEDMPSYGVYPWLRHNVDLKLKELLEKSISRRRDTEAIQKAKILYSSCMNEKAIEKADAKPLLHILRHSPFRWPVLESNIGPEGVWSERKFSLLQTLATFRGQYSNSVFIRLYVSPDDKASNEHILKLDQATLSLAVREDYLDNSTEAKSYRDALYKFMVDTAVLLGANSSRAEHDMKSVLRLEIKIAEIMIPHENRTSEAMYNKMNISELSAMIPQFDWLGYIKKVIDTRLYPHLKDISPSENVVVRVPQYFKDLFRILGSERKKTIANYLVWRMVYSRIPNLSRRFQYRWLEFSRVIQGTTTLLPQWDKCVNFIESALPYVVGKMFVDVYFQEDKKEMMEELVEGVRWAFIDMLEKENEWMDAGTKRKAKEKARAVLAKVGYPEFIMNDTHVNEDLKAIKFSEADYFGNVLQTRKYLAQSDFFWLRKAVPKTEWFTNPTTVNAFYSASTNQIRFPAGELQKPFFWGTEYPRSLSYGAIGVIVGHEFTHGFDNNGRKYDKNGNLDPWWSTESEEKFKEKTKCMINQYSNYYWKKAGLNVKGKRTLGENIADNGGLREAFRAYRKWINDRRQGLEEPLLPGITFTNNQLFFLSYAHVRCNSYRPEAAREQVQIGAHSPPQFRVNGAISNFEEFQKAFNCPPNSTMNRGMDSCRLW

How the values were obtained:
Test in all cases: SPR
human recombinant DMP1 [1] = target: T1, human recombinant DMP1 (human, UniProt Q13316 17-513)
T1 chain: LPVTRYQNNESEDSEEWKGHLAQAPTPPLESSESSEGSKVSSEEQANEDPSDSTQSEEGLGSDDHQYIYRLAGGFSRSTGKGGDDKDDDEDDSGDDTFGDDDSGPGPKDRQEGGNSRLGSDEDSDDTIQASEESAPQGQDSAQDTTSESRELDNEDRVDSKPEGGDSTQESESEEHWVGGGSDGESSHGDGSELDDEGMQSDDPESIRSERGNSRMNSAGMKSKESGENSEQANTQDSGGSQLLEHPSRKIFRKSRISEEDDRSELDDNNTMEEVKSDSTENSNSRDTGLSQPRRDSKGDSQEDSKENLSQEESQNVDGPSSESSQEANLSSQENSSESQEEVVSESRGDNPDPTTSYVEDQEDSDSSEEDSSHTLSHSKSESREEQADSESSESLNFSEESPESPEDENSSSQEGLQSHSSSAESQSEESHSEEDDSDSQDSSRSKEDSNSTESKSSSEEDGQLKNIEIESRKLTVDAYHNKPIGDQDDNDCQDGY

human recombinant DMP1 [2] = target: T1, human recombinant DMP1
ASARM peptide = target: ASARM peptide

Binder | Kd (human recombinant DMP1 [1]) | Kd (human recombinant DMP1 [2]) | Kd (ASARM peptide)
B1 | 248 nM | 248 nM | –
B2 | – | – | 176 nM

From US20170121382A1 (published 2017)
